Results: patent US20030190342A1

Columns and labels:
[1] = molecular target: human collagen type I (human) (UniProt P02452); test: microtiter plate competition: inhibition of purified human vWF binding to coated human collagen I; competitor purified human vWF, detected with anti-vWF-HRP
[2] = molecular target: calf skin collagen (calf); test: microtiter plate competition: inhibition of binding of vWF in diluted human plasma to coated calf skin collagen
[3] = molecular target: human collagen type I (human) (UniProt P02452); test: microtiter plate competition: inhibition of binding of vWF in diluted human plasma to coated human collagen type I
[4] = molecular target: calf skin collagen (calf); test: microtiter plate competition: inhibition of binding of vWF in diluted porcine plasma to coated calf skin collagen
[5] = molecular target: human collagen type I (human) (UniProt P02452); test: microtiter plate competition: inhibition of binding of vWF in diluted murine plasma to coated human collagen type I
[6] = molecular target: human collagen type III (human) (UniProt P02461); test: microtiter plate competition: inhibition of binding of vWF in diluted porcine plasma to coated human collagen type III
[7] = molecular target: collagen (platelet aggregation agonist, 0.5 µg ml^-1); test: cell-based or functional assay
[8] = molecular target: calf skin collagen (calf); test: cell-based or functional assay
[9] = molecular target: calf skin collagen (calf); test: microtiter plate competition: inhibition of purified human vWF binding to coated calf skin collagen; competitor purified human vWF, detected with anti-vWF-HRP
[10] = molecular target: human collagen type I (human) (UniProt P02452); test: microtiter plate competition: inhibition of binding of vWF in diluted hamster plasma to coated human collagen type I
[11] = molecular target: human collagen type III (human) (UniProt P02461); test: microtiter plate competition: inhibition of binding of vWF in diluted murine plasma to coated human collagen type III
[12] = molecular target: human collagen type III (human) (UniProt P02461); test: microtiter plate competition: inhibition of purified human vWF binding to coated human collagen III; competitor purified human vWF, detected with anti-vWF-HRP
[13] = molecular target: human collagen type III (human) (UniProt P02461); test: microtiter plate competition: inhibition of binding of vWF in diluted human plasma to coated human collagen type III
[14] = molecular target: human collagen type III (human) (UniProt P02461); test: SPR (BIAcore 3000), immobilised human collagen type III, Scatchard analysis of plateau RU; low affinity site
[15] = molecular target: human collagen type I (human) (UniProt P02452); test: microtiter plate competition: inhibition of binding of vWF in diluted porcine plasma to coated human collagen type I
[16] = molecular target: human collagen type III (human) (UniProt P02461); test: SPR (BIAcore 3000), immobilised human collagen type III, Scatchard analysis of plateau RU; high affinity site
[17] = molecular target: calf skin collagen (calf); test: microtiter plate competition: inhibition of binding of vWF in diluted murine plasma to coated calf skin collagen
[18] = molecular target: calf skin collagen (calf); test: microtiter plate competition: inhibition of binding of vWF in diluted hamster plasma to coated calf skin collagen

Sequence of UniProt P02461 (P02461 154-1221): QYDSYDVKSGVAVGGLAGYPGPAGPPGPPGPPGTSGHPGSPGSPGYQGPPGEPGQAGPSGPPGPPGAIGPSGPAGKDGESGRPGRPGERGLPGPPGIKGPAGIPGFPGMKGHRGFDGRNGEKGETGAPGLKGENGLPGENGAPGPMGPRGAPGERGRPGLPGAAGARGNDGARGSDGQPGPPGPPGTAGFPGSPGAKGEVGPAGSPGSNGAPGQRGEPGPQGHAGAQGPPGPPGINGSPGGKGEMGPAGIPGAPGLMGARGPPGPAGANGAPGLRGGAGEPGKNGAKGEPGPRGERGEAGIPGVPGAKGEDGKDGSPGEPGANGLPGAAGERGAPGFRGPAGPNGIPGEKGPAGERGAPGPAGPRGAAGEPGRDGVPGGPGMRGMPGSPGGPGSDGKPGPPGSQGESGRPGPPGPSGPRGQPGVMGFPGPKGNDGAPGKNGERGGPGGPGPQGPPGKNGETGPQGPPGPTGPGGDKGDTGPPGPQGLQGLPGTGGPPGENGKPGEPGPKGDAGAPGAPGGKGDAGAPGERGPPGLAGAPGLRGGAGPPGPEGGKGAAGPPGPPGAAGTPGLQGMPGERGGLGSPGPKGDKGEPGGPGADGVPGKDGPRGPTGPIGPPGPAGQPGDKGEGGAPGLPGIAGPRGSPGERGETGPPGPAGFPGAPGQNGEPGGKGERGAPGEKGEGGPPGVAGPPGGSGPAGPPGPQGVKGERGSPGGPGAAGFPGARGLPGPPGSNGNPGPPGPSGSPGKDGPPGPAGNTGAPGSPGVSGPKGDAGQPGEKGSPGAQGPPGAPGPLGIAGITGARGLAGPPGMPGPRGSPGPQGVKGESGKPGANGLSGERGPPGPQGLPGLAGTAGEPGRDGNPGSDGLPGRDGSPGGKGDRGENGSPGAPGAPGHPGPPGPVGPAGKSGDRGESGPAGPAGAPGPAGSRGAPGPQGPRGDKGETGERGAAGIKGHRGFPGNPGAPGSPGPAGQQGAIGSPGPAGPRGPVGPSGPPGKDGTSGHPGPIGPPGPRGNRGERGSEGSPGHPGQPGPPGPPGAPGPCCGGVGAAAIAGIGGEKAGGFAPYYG
Sequence of UniProt P02452 (P02452 162-1218, chain 1 of 2): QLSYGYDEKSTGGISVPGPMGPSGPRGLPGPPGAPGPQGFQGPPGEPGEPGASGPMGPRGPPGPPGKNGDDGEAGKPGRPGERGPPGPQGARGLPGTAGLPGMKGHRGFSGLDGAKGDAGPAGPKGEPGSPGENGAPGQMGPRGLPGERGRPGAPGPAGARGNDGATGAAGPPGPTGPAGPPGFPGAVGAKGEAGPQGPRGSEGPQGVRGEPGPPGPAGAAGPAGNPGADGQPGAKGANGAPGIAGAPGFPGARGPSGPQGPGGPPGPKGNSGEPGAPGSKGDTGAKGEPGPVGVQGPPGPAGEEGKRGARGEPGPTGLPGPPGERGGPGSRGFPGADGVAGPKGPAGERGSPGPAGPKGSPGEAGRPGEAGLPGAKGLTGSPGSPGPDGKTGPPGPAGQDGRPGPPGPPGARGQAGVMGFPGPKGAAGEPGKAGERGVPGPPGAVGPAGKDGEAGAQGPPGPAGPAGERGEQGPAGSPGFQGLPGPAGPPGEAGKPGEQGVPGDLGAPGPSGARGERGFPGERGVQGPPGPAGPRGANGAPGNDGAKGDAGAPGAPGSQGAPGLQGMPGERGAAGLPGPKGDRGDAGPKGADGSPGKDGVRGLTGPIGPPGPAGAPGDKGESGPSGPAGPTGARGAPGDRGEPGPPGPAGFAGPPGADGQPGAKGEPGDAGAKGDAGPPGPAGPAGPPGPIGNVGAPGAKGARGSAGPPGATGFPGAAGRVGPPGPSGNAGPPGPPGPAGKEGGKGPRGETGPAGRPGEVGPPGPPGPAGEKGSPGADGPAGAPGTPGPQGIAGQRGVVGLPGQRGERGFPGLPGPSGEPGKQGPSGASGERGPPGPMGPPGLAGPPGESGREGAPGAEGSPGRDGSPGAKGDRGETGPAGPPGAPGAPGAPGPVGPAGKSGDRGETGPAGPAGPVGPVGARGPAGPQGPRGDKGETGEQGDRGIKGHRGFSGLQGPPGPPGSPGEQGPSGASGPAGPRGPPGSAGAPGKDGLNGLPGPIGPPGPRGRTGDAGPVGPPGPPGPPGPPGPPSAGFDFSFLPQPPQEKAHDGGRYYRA
Sequence of UniProt P02452 (P08123 80-1119, chain 2 of 2, further chain): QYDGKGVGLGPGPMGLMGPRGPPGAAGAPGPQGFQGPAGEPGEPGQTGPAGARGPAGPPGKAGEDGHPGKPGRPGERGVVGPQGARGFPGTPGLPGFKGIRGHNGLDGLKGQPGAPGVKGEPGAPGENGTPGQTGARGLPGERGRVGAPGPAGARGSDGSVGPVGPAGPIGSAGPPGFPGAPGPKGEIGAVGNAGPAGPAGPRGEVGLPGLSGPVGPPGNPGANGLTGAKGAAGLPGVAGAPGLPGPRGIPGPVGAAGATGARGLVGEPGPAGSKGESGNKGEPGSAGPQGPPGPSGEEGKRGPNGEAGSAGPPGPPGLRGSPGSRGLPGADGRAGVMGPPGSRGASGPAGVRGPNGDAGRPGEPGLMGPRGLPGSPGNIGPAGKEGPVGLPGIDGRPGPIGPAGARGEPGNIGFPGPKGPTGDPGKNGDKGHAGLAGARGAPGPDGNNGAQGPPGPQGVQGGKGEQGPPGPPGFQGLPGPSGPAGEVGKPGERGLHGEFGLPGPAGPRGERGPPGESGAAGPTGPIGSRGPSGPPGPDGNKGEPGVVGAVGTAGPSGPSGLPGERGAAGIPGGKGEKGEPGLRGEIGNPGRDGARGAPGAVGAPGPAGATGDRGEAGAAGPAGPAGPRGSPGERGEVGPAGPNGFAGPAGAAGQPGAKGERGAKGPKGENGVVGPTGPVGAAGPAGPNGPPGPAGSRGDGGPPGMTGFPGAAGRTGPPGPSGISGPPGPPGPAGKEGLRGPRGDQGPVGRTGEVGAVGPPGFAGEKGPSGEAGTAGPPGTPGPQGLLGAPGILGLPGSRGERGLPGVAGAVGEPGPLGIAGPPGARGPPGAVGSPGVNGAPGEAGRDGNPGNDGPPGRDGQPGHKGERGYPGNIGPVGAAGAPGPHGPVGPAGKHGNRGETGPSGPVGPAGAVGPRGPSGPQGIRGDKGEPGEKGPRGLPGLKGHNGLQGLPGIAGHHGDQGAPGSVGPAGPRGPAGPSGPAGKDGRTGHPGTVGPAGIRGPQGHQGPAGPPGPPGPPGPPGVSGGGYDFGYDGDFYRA

Saratin
IC50 [1]: 0.23 µg/mL
IC50 [2]: 0.3 µg/mL
IC50 [3]: 0.2 µg/mL
IC50 [4]: 0.5 µg/mL
IC50 [5]: 0.1 µg/mL
IC50 [6]: 0.5 µg/mL
Aggregation (%) of platelet-rich plasma induced by collagen at 10 µg ml^-1 saratin [7]: 67%
Aggregation (%) of platelet-rich plasma induced by collagen at 20 µg ml^-1 saratin [7]: 63%
Aggregation (%) of platelet-rich plasma induced by collagen at 40 µg ml^-1 saratin [7]: 64%
Aggregation (%) of platelet-rich plasma induced by collagen at 200 µg ml^-1 saratin [7]: 0%
IC50 of inhibition of platelet adhesion to collagen-coated coverslips, flow chamber, shear rate 1300 s^-1 [8]: 5.2 µg/mL
IC50 of inhibition of platelet adhesion to collagen-coated coverslips, flow chamber, shear rate 2700 s^-1 [8]: 0.96 µg/mL
inhibition of platelet adhesion to collagen-coated coverslips, flow chamber, shear rate 300 s^-1 [8]: > 10 µg/mL
IC50 [9]: 0.44 µg/mL
IC50 [10]: 0.4 µg/mL
IC50 [11]: 0.6 µg/mL
IC50 [12]: 0.81 µg/mL
IC50 [13]: 0.9 µg/mL
Kd [14]: 2 µM
IC50 [15]: 0.2 µg/mL
Kd [16]: 0.05 µM
IC50 [17]: 0.3 µg/mL
IC50 [18]: 7 µg/mL
